# In US20130281314A1:
# Experiments:
# [1] = molecular target: USP10; test: anti-HA IP-MS, HEK293T cells
# [2] = molecular target: USP19 (human) (UniProt O94966); test: anti-HA IP-MS, HEK293T cells
# [3] = molecular target: USP47 (human) (UniProt Q96K76); test: anti-HA IP-MS, HEK293T cells
# [4] = molecular target: USP8 (human) (UniProt P40818); test: anti-HA IP-MS, HEK293T cells
# [5] = molecular target: USP13 (human) (UniProt Q92995); test: anti-HA IP-MS, HEK293T cells
# [6] = molecular target: USP24 (human) (UniProt Q9UPU5); test: anti-HA IP-MS, HEK293T cells
# [7] = molecular target: USP11 (human) (UniProt P51784); test: anti-HA IP-MS, HEK293T cells
# [8] = molecular target: USP34; test: anti-HA IP-MS, HEK293T cells
# [9] = molecular target: USP15 (human) (UniProt Q9Y4E8); test: anti-HA IP-MS, HEK293T cells
# [10] = molecular target: USP25 (human) (UniProt Q9UHP3); test: anti-HA IP-MS, HEK293T cells
# [11] = molecular target: OTUB1 (human) (UniProt Q96FW1); test: anti-HA IP-MS, HEK293T cells
# [12] = molecular target: UCHL5 (human) (UniProt Q9Y5K5); test: anti-HA IP-MS, HEK293T cells
# [13] = molecular target: USP9X (human) (UniProt Q93008); test: anti-HA IP-MS, HEK293T cells
# [14] = molecular target: UCHL1 (UniProt P09936); test: anti-HA IP-MS, HEK293T cells
# [15] = molecular target: USP14 (human) (UniProt P54578); test: anti-HA IP-MS, HEK293T cells
# [16] = molecular target: BRCC36 (human) (UniProt P46736); test: anti-HA IP-MS, HEK293T cells
# [17] = molecular target: USP10; test: anti-HA IP-MS, WT HCT116 cells
# [18] = molecular target: USP47 (human) (UniProt Q96K76); test: anti-HA IP-MS, WT HCT116 cells
# [19] = molecular target: USP8 (human) (UniProt P40818); test: anti-HA IP-MS, WT HCT116 cells
# [20] = molecular target: USP13 (human) (UniProt Q92995); test: anti-HA IP-MS, WT HCT116 cells
# [21] = molecular target: USP24 (human) (UniProt Q9UPU5); test: anti-HA IP-MS, WT HCT116 cells
# [22] = molecular target: USP11 (human) (UniProt P51784); test: anti-HA IP-MS, WT HCT116 cells
# [23] = molecular target: USP34; test: anti-HA IP-MS, WT HCT116 cells
# [24] = molecular target: USP15 (human) (UniProt Q9Y4E8); test: anti-HA IP-MS, WT HCT116 cells
# [25] = molecular target: USP25 (human) (UniProt Q9UHP3); test: anti-HA IP-MS, WT HCT116 cells
# [26] = molecular target: OTUB1 (human) (UniProt Q96FW1); test: anti-HA IP-MS, WT HCT116 cells
# [27] = molecular target: UCHL5 (human) (UniProt Q9Y5K5); test: anti-HA IP-MS, WT HCT116 cells
# [28] = molecular target: USP9X (human) (UniProt Q93008); test: anti-HA IP-MS, WT HCT116 cells
# [29] = molecular target: UCHL1 (UniProt P09936); test: anti-HA IP-MS, WT HCT116 cells
# [30] = molecular target: USP14 (human) (UniProt P54578); test: anti-HA IP-MS, WT HCT116 cells
# [31] = molecular target: BRCC36 (human) (UniProt P46736); test: anti-HA IP-MS, WT HCT116 cells
# USP34, sequence (chain, as listed by the source limits assumed): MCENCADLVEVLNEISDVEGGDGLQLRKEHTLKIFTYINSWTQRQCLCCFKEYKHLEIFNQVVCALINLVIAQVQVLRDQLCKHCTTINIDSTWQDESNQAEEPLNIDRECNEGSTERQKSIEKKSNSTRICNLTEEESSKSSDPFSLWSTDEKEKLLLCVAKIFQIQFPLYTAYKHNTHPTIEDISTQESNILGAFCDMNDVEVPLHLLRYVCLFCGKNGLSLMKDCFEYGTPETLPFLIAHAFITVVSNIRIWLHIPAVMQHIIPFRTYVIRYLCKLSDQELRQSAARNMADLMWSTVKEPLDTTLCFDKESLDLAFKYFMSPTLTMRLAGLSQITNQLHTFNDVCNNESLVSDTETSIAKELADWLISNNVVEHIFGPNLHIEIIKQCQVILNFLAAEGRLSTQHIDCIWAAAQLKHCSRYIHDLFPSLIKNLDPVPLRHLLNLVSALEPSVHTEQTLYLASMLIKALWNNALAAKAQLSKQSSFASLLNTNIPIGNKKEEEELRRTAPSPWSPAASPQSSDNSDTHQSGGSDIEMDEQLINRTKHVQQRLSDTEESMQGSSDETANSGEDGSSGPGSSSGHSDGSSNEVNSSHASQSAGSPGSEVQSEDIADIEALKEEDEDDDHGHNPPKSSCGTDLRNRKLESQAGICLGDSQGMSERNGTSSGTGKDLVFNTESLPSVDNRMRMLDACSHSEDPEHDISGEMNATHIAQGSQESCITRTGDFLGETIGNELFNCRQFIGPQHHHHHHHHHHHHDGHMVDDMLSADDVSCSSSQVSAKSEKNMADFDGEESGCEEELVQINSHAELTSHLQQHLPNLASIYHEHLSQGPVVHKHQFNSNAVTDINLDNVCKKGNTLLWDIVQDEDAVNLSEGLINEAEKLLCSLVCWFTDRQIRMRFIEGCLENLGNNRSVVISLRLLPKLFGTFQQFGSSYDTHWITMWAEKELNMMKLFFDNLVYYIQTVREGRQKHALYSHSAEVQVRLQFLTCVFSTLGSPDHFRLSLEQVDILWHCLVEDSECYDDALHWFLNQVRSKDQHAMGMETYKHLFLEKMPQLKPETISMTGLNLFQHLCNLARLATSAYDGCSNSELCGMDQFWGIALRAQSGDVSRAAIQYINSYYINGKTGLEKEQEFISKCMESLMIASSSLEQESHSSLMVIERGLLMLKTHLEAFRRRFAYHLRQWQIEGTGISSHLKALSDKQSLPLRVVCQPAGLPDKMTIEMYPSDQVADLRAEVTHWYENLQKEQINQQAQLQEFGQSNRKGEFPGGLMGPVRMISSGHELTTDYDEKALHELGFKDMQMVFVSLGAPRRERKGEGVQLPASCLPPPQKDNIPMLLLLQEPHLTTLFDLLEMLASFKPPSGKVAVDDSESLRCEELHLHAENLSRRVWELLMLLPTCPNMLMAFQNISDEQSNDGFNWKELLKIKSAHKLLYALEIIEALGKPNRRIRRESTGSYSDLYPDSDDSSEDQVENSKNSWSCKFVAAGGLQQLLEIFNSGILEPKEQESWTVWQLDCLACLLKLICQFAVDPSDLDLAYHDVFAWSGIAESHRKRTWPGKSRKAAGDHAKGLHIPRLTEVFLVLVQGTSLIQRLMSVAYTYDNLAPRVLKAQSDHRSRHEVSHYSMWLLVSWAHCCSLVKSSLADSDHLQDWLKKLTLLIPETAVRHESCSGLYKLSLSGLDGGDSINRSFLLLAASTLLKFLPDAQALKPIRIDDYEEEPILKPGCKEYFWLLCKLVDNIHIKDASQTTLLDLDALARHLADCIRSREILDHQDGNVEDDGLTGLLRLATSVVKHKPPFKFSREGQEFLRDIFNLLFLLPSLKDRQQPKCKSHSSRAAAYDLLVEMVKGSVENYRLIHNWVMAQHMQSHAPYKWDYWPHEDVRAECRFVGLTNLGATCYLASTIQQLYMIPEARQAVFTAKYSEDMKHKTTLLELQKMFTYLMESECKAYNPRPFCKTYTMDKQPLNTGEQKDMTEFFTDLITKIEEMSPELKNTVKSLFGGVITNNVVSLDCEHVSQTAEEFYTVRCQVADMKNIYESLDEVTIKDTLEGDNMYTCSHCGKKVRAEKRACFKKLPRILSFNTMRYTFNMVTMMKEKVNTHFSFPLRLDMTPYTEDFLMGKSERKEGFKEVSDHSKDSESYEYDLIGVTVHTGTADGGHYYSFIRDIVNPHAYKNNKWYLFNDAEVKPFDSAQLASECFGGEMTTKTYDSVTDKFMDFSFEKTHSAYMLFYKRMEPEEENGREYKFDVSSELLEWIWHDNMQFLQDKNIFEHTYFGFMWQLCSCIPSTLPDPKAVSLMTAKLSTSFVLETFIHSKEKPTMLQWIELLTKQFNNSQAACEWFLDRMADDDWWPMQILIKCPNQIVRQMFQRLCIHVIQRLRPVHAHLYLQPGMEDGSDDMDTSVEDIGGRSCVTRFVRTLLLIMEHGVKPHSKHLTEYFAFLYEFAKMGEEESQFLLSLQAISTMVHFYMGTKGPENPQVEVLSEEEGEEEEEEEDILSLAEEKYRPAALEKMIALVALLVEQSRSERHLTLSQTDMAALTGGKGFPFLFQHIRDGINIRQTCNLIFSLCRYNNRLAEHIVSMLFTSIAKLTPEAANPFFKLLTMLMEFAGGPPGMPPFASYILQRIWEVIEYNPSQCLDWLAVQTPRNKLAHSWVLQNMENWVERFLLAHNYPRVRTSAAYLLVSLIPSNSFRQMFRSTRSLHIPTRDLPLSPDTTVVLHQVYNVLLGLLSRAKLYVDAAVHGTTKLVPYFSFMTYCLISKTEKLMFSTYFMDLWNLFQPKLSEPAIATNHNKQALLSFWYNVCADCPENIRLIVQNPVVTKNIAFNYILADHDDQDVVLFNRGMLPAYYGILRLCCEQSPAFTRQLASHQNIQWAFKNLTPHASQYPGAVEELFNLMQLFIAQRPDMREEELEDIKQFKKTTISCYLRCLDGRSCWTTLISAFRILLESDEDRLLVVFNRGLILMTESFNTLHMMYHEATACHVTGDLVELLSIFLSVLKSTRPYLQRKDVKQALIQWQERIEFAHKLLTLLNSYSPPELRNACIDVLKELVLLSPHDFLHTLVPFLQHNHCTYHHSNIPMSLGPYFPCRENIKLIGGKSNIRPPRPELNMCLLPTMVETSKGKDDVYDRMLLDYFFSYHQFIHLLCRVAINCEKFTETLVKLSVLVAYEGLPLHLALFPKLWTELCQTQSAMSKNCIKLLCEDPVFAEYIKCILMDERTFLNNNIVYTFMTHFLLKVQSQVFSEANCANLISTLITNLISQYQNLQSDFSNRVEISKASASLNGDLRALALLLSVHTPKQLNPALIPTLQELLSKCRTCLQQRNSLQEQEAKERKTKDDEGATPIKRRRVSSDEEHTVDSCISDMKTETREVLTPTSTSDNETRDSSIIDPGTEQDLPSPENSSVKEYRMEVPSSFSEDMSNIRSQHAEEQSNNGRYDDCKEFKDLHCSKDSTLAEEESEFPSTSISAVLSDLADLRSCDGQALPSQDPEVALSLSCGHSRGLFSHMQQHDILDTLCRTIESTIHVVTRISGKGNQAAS
# USP11 (human), sequence (P51784 whole entry): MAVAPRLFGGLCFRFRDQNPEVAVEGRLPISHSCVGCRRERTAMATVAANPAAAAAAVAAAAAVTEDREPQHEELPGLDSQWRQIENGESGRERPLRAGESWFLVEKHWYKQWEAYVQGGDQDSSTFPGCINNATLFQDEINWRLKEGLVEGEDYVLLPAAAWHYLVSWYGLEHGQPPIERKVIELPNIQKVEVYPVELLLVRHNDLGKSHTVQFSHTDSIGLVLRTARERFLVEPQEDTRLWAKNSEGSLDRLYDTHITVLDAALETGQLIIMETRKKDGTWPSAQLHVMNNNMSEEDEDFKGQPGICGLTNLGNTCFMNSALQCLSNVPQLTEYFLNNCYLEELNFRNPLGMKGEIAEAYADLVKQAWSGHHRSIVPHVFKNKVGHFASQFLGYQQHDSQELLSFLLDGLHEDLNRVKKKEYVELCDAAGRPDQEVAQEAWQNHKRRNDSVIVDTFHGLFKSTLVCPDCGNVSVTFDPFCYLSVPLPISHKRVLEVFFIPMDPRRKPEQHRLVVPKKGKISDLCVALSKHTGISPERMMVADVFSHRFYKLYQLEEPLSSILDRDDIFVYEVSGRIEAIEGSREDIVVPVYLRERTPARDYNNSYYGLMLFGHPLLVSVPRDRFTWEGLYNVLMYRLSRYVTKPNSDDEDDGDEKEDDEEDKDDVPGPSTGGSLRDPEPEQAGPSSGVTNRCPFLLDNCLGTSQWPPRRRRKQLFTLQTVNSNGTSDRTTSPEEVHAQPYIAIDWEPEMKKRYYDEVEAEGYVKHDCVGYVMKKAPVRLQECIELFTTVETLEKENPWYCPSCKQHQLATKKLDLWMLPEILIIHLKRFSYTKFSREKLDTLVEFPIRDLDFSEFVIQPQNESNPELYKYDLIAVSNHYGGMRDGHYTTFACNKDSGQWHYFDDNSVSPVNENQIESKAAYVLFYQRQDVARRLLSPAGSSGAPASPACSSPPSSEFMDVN
# USP14 (human), sequence (P54578 whole entry): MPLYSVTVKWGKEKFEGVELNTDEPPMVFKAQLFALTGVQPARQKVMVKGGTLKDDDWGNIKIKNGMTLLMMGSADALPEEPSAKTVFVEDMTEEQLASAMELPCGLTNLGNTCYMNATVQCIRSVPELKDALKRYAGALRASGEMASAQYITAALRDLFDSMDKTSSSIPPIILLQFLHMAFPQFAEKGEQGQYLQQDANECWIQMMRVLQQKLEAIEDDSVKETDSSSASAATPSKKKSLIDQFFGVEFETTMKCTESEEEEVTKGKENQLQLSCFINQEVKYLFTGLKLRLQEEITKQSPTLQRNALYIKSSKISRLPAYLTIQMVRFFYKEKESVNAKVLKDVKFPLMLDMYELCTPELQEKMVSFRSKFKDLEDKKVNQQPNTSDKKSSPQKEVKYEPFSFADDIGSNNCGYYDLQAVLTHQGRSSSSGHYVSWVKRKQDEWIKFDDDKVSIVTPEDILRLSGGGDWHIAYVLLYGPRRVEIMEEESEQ
substance,measurement,setting,value
HA-UbΔGG,total peptides (unique peptides),[1],6 peptides
same,total peptides (unique peptides),[2],54 peptides
same,total peptides (unique peptides),[3],2 peptides
same,total peptides (unique peptides),[4],1 peptides
same,total peptides (unique peptides),[5],0 peptides
same,total peptides (unique peptides),[6],20 peptides
same,total peptides (unique peptides),[7],4 peptides
same,total peptides (unique peptides),[8],1 peptides
same,total peptides (unique peptides),[9],1 peptides
same,total peptides (unique peptides),[10],2 peptides
same,total peptides (unique peptides),[11],9 peptides
same,total peptides (unique peptides),[12],9 peptides
same,total peptides (unique peptides),[13],40 peptides
same,total peptides (unique peptides),[14],3 peptides
same,total peptides (unique peptides),[15],4 peptides
same,total peptides (unique peptides),[16],0 peptides
same,total peptides (unique peptides),[17],8 peptides
same,total peptides (unique peptides),[18],0 peptides
same,total peptides (unique peptides),[19],3 peptides
same,total peptides (unique peptides),[20],1 peptides
same,total peptides (unique peptides),[21],1 peptides
same,total peptides (unique peptides),[22],10 peptides
same,total peptides (unique peptides),[23],0 peptides
same,total peptides (unique peptides),[24],7 peptides
same,total peptides (unique peptides),[25],34 peptides
same,total peptides (unique peptides),[26],10 peptides
same,total peptides (unique peptides),[27],6 peptides
same,total peptides (unique peptides),[28],12 peptides
same,total peptides (unique peptides),[29],0 peptides
same,total peptides (unique peptides),[30],3 peptides
same,total peptides (unique peptides),[31],1 peptides
